Reference: US20110065647A1 (BIOSEARCH 2007, published 2011)
Ends that are not written are not given here.

B1: Peptide A (peptide)
peptide: DDCLGMFSSCDPDNDKCCEGRKCNRKDKWCKYVL-NH2
modifications: disulfide (positions not given here); not fully specified (bridges); also: three disulphide bridges, probably C1-C4, C2-C5, C3-C6
B2: Peptide C (peptide)
peptide: ACLGFGEKCNPSNDKCCKSSSLVCSQKHKWCKYGW
modifications: disulfide (positions not given here); not fully specified (bridges); also: three disulphide bridges, probably C1-C4, C2-C5, C3-C6
B3: Peptide B (peptide)
peptide: YCQEFLWTCDEERKCCGDMVCRLWCKKRL-NH2
modifications: disulfide (positions not given here); not fully specified (bridges); also: three disulphide bridges, probably C1-C4, C2-C5, C3-C6
B4: Peptide F (peptide)
peptide: DCLGWFKGCDPDNDKCCEGYKCNRRDKWCKYKLW
modifications: disulfide (positions not given here); not fully specified (bridges); also: three disulphide bridges, probably C1-C4, C2-C5, C3-C6

Key:
[1] = target: rNaV1.3 channels (rat, UniProt P08104 1-1951); test: cell-based or functional assay
Sequence of rNaV1.3 channels (P08104 whole entry): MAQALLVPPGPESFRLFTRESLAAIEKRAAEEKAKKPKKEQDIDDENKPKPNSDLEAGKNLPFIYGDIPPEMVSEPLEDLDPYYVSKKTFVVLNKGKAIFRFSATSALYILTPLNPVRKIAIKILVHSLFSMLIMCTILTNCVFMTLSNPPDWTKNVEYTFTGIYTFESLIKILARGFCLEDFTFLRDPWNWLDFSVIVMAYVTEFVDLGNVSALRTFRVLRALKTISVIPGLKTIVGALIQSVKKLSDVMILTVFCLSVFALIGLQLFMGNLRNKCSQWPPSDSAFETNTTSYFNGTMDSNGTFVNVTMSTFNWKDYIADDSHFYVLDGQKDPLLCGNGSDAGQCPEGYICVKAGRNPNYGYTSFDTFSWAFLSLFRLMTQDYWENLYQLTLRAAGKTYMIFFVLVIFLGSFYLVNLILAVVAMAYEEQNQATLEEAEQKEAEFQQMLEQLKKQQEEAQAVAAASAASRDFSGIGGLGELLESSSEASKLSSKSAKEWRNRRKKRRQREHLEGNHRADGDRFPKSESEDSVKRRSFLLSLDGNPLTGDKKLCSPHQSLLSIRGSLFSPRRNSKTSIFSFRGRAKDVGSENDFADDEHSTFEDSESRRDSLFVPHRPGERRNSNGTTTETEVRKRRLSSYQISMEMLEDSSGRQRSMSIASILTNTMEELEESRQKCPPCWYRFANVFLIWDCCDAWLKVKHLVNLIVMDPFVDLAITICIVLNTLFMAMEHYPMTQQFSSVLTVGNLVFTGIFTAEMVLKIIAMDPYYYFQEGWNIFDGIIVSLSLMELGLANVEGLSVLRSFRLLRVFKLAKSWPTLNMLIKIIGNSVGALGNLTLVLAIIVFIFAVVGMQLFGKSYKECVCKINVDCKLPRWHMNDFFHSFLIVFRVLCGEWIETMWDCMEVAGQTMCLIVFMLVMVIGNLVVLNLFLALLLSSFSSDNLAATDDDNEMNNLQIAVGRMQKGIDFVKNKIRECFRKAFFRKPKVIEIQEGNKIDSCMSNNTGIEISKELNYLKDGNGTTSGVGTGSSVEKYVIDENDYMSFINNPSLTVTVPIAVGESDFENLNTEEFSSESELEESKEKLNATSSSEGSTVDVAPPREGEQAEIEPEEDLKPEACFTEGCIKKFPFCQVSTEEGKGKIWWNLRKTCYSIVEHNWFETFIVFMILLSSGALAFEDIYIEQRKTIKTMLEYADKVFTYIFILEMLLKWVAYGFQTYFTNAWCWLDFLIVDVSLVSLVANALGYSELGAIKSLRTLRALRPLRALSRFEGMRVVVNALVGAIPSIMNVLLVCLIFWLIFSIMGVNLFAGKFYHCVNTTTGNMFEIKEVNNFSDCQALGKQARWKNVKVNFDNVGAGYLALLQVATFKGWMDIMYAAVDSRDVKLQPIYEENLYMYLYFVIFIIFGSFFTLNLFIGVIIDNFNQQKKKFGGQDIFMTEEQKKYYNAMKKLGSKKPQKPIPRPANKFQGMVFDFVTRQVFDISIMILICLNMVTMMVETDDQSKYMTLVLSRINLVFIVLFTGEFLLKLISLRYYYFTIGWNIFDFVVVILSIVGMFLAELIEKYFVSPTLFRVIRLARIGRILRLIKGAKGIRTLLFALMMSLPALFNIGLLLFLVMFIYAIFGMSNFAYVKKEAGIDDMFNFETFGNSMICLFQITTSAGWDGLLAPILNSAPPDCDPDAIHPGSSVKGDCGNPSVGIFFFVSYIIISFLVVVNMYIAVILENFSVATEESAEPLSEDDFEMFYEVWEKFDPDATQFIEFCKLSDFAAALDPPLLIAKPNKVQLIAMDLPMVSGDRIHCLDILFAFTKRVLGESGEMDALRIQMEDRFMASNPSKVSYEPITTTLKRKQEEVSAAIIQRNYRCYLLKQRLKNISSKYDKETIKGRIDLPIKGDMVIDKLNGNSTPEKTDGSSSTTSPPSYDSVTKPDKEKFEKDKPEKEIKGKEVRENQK

[2] = target: rNaV1.8 channels (rat, UniProt Q62968 1-1956); test: cell-based or functional assay
Sequence of rNaV1.8 channels (Q62968 whole entry): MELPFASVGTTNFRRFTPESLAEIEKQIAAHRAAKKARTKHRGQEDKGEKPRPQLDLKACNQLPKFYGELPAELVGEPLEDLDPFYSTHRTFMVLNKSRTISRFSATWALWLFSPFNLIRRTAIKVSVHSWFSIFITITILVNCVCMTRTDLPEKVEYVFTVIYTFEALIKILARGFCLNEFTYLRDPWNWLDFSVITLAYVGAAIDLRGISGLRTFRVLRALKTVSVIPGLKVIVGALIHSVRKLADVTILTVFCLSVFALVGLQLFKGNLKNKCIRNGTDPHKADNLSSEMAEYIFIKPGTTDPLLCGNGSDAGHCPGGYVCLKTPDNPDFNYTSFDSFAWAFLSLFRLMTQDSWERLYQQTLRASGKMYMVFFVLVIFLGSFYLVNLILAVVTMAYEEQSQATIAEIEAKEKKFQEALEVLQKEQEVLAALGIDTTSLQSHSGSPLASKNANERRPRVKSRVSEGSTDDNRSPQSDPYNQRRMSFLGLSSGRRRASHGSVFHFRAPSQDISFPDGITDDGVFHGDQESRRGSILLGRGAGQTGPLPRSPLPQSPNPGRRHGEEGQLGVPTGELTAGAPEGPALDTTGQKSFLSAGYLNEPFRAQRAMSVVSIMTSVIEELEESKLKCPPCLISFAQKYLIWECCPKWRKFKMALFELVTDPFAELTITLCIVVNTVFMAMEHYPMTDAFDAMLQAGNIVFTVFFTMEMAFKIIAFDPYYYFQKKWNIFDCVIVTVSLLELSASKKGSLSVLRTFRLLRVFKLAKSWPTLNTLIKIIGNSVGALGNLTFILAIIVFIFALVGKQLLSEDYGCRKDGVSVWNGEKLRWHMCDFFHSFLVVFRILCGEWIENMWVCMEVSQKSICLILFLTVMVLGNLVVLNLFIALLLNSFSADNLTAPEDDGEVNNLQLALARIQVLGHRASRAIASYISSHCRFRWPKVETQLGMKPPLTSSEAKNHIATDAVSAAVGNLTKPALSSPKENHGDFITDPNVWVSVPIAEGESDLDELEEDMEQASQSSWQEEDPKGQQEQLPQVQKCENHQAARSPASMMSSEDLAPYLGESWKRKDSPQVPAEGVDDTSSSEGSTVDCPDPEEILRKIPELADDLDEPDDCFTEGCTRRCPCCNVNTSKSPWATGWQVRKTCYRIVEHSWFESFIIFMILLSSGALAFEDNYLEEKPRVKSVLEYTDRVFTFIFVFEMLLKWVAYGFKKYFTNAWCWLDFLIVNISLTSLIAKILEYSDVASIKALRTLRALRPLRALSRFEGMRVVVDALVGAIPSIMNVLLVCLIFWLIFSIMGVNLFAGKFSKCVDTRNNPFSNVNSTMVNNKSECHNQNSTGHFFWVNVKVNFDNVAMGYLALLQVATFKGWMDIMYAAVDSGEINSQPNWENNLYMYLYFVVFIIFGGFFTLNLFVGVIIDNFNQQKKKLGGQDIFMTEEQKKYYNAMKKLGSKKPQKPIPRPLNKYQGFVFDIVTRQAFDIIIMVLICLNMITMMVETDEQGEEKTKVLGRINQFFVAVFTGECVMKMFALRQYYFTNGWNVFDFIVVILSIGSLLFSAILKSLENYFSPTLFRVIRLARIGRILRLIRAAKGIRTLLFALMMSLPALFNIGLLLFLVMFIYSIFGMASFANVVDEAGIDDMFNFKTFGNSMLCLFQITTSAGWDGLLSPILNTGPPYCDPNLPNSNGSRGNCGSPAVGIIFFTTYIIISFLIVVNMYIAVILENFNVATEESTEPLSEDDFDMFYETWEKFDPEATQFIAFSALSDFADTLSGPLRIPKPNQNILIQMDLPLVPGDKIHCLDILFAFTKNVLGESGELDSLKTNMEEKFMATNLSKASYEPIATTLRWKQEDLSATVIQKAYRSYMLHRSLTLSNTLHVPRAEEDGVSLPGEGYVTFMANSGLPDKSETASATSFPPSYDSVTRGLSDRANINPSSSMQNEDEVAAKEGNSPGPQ

Row | Binder | IC50 Nav1.3 (µM); inhibition of channel current, patch clamp [1] | IC50 Nav1.8 (µM); inhibition of channel current, patch clamp [2]
1 | B1 | 1.75 µM | 2.5 µM
2 | B2 | 1.2 µM | –
3 | B3 | 0.23 µM | –
4 | B4 | 0.13 µM | 0.17 µM
